In this assay the target is T1, SARS-CoV spike protein as made in Vero E6 cells infected with SARS-CoV (SARS-CoV, UniProt P59594 14-1255).
T1 construct: whole, on cells
As to the kind of experiment: IFA on Vero E6 cells infected with SARS-CoV.

B1: Monoclonal antibody (mAb) 8a-1 (antibody, V domains shown)
VH: EVQLQESGGGLVQPGGSLKLSCAASGFTFSSYTMSWVRQTPEKRLEWVAYISNGGGSISYPDTVKGRFTISRDNAKNTLYLHMSSLKSEDTAMYHCAREGLRPGDRDRYYAMDYWGQGTSVTVSS
VL: DIVITQSPALMAAFPGDRVTITCSVSSSVSSSNLHWYRQKSETSPKPWIYGTSTLASGVPVRFSGSGSGTSYSLTISSMEAEDAATYYCQQWSSYPLTFGAGTKLELKR
notes: also called clone 8a-1; first antibody
Turning to B1, the binding result is recorded as “binds”.

B2: Monoclonal antibody (mAb) 27b-2 (antibody, V domains shown)
VH: EVQLQESGGGLVKLGGSLKLSCAASGFTFSTYYMSWVRQTPEKRLELVAAINSNGGGTYYPDNVKGRFTISRDNAKNTLYLQMSSLKSEDTALYYCTNYFGSTYAMDYWGQGTSVTVSS
VL: DIVLTQSPLSLPVSLGDQASISCRSSQSLVHSNGNTYLHWYLQKPGQSPKLLIYKVSNRFSGVPDRFSGSGLGTDFTLKIIRVEAEDLGVYFCSQNTHVPFTFGSGTKLEIKR
notes: also called clone 27b-2; second antibody
Regarding B2, the binding result is “binds”.
